Patent US20210388110A1 (published 2021)

Target: T1, soluble human CD3ε chain (human, UniProt P07766 23-126, limits assumed)
T1 construct: the text says soluble human CD3ε chain; also called human CD3 epsilon chain
Experiment: SPR (Biacore)

T1 sequence (P07766 23-126 limits assumed): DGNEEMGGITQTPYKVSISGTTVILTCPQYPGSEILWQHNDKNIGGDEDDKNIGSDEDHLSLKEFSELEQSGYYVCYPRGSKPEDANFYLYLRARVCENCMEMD

| Kd [nM] | Binder |
| --- | --- |
| 46.5 | TR01H040-E22Hh/none-Hi-Kn010G3/L0222-k0 (antibody, human IgG1, kappa, L234A L235A, N297A, single-arm) heavy: QVQLVESGGGLVQPGRSLRLSCAASGFTFSNAWMHWVRQAPGKGLEWVAQIKDKSQNYATYYAESVKGRFTISRADSKNSIYLQMNSLKTEDTAVYYCRYVHYSASYGVDAWGQGTTVTVSSASTKGPSVFPLAPSSKSTSGGTAALGCLVKDYFPEPVTVSWNSGALTSGVHTFPAVLQSSGLYSLSSVVTVPSSSLGTQTYICNVNHKPSNTKVDKKVEPKSCDKTHTCPPCPAPEAAGGPSVFLFPPKPKDTLMISRTPEVTCVVVDVSHEDPEVKFNWYVDGVEVHNAKTKPREEQYASTYRVVSVLTVLHQDWLNGKEYKCKVSNKALPAPIEKTISKAKGQPREPQVYTLPPSRCELTKNQVSLSCAVKGFYPSDIAVEWESNGQPENNYKTTPPVLDSDGSFFLVSKLTVDKSRWQQGNVFSCSVMHEALHNHYTQKSLSLSPDYKDDDDK EPKSSDKTHTCPPCPAPELLGGPSVFLFPPKPKDTLMISRTPEVTCVVVDVSHEDPEVKFNWYVDGVEVHNAKTKPREEQYNSTYRVVSVLTVLHQDWLNGKEYKCKVSNKALPAPIEKTISKAKGQPREPQVCTLPPSRDELTKNQVSLWCLVKGFYPSDIAVEWESNGQPENNYKTTPPVLDSDGSFFLYSKLTVDKSRWQQGNVFSCSVMHEALHNRYTQKSLSLSP light: DIVMTQSPLSLPVTPGEPASISCRSSQSPVHSNRNTYIQWYQQKPGQAPRLLIYKVSNRFSGVPDRFSGSGSGTDFTLKISRVEAEDVGVYYCYQGTQVPYTFGQGTKLEIKRTVAAPSVFIFPPSDEQLKSGTASVVCLLNNFYPREAKVQWKVDNALQSGNSQESVTEQDSKDSTYSLSSTLTLSKADYEKHKVYACEVTHQGLSSPVTKSFNRGEC |
| 8.15 | TR01H040-E22Hh/none-Hi-Kn010G3/L0223-k0 (antibody, human IgG1, kappa, L234A L235A, N297A, single-arm) heavy: QVQLVESGGGLVQPGRSLRLSCAASGFTFSNAWMHWVRQAPGKGLEWVAQIKDKSQNYATYYAESVKGRFTISRADSKNSIYLQMNSLKTEDTAVYYCRYVHYSASYGVDAWGQGTTVTVSSASTKGPSVFPLAPSSKSTSGGTAALGCLVKDYFPEPVTVSWNSGALTSGVHTFPAVLQSSGLYSLSSVVTVPSSSLGTQTYICNVNHKPSNTKVDKKVEPKSCDKTHTCPPCPAPEAAGGPSVFLFPPKPKDTLMISRTPEVTCVVVDVSHEDPEVKFNWYVDGVEVHNAKTKPREEQYASTYRVVSVLTVLHQDWLNGKEYKCKVSNKALPAPIEKTISKAKGQPREPQVYTLPPSRCELTKNQVSLSCAVKGFYPSDIAVEWESNGQPENNYKTTPPVLDSDGSFFLVSKLTVDKSRWQQGNVFSCSVMHEALHNHYTQKSLSLSPDYKDDDDK EPKSSDKTHTCPPCPAPELLGGPSVFLFPPKPKDTLMISRTPEVTCVVVDVSHEDPEVKFNWYVDGVEVHNAKTKPREEQYNSTYRVVSVLTVLHQDWLNGKEYKCKVSNKALPAPIEKTISKAKGQPREPQVCTLPPSRDELTKNQVSLWCLVKGFYPSDIAVEWESNGQPENNYKTTPPVLDSDGSFFLYSKLTVDKSRWQQGNVFSCSVMHEALHNRYTQKSLSLSP light: DIVMTQSPLSLPVTPGEPASISCRSSQSPVHSNRNTYIHWYQQKPGQAPRLLIYKVSNRLSGVPDRFSGSGSGTDFTLKISRVEAEDVGVYYCYQGTQVPYTFGQGTKLEIKRTVAAPSVFIFPPSDEQLKSGTASVVCLLNNFYPREAKVQWKVDNALQSGNSQESVTEQDSKDSTYSLSSTLTLSKADYEKHKVYACEVTHQGLSSPVTKSFNRGEC |
